Measured values taken from patent US20230137562A1, “TAU AGGREGATION INHIBITORS” (priority 2017, published 2023).
Values joined by “and” are separate entries in the source; they are usually repeats but may differ in a detail not shown here. Identical values can stand only once. Square brackets hold non-standard residues; d marks the D form. Ends that are not written are not given here. Peptide text beside a SMILES is read from it. NMeR = CN[C@@H](CCCNC(=N)N)C(=O)O; hArg = N=C(N)NCCCC[C@H](N)C(=O)O; Orn = NCCC[C@H](N)C(=O)O

B1: WRLRIHW (peptide)
peptide: WRLRIHW
B2: HRIWIRYW (peptide)
peptide: HRIWIRYW
B3: WWIRLRYW (peptide)
peptide: WWIRLRYW
B4: WRLKVRWW (peptide)
peptide: WRLKVRWW
B5: RWRIWIW (peptide)
peptide: RWRIWIW
B6: WRIFIRW (peptide)
peptide: WRIFIRW
B7: RLRIWIW (peptide)
peptide: RLRIWIW
B8: WRI(NMe)RIRW (peptide)
peptide: WRI[NMeR]IRW
B9: WYRIRLRYW (peptide)
peptide: WYRIRLRYW
B10: LRIRIRW (peptide)
peptide: LRIRIRW
B11: RRIWIRYW (peptide)
peptide: RRIWIRYW
B12: RYRIWIW (peptide)
peptide: RYRIWIW
B13: WRIWLRYW (peptide)
peptide: WRIWLRYW
B14: WYOIWIOW (peptide)
peptide: WY[Orn]IWI[Orn]W
B15: WKIKLKYW (peptide)
peptide: WKIKLKYW
B16: WRIRIRYW (peptide)
peptide: WRIRIRYW
B17: WRIRIRL (peptide)
peptide: WRIRIRL
B18: WRIQIRW (peptide)
peptide: WRIQIRW
B19: WRIWIRRW (peptide)
peptide: WRIWIRRW
B20: RIWIRLW (peptide)
peptide: RIWIRLW
B21: RIRIFIF (peptide)
peptide: RIRIFIF
B22: WRITIRW (peptide)
peptide: WRITIRW
B23: WYRIWVRYW (peptide)
peptide: WYRIWVRYW
B24: WWIRIRYWL (peptide)
peptide: WWIRIRYWL
B25: WY(hR)L(hR)I(hR)W (peptide)
peptide: WY[hArg]L[hArg]I[hArg]W
B26: WKVWVRYW (peptide)
peptide: WKVWVRYW
B27: RIWLRLW (peptide)
peptide: RIWLRLW
B28: WRIRLYWW (peptide)
peptide: WRIRLYWW
B29: FRIRIRW (peptide)
peptide: FRIRIRW
B30: LRIRIRL (peptide)
peptide: LRIRIRL

Each molecule was assayed against T1, Ac-VQIINK-NH2 (Homo sapiens, UniProt P10636) (assay: Inhibition of VQIINK aggregation with peptide inhibitors (ThT)).
T1 construct: made in house; host or cells: chemical peptide synthesis
Type: biochemical
Method: The following describes the experimental method used to evaluate the IC50 of aggregation of VQIINK (SEQ ID NO:220) inhibition by the peptide inhibitors described above. The peptide sequence comprising Ac-VQIINK-NH2 (C-terminal amidated (SEQ ID NO: 220)) is prepared using the peptide synthetic method described above. The Ac-VQIINK-NH2 (SEQ ID NO: 220) is stored at 10 mM in 100% DMSO at −80° C., and an aliquot volume sufficient for a single aggregation assay plate is removed. The stock aggregation buffer (5×) is prepared with the following: 250 mM NaPhosphate (pH 8.0), 125 mM KCl, and 500 micromolar ThioflavinT (ThT). The aggregation assay is conducted with shaking, at room temperature, on a plate reader model FLX-800 by BioTek. Water for primary Ac-VQIINK-NH2 (SEQ ID NO: 220) dissolution is cooled to 4 degrees Celsius (7.245 milliliters). Buffer is added from the 5×stock (40 microliters, final volume in assay plate is 130 microliters, final buffer concentrations 50 millimolar NaPO4 (pH 8.0); 25 milllimolar KCl; and 100 micromolar ThioflavinT). The assay plate is cooled to 4 degrees Celsius. The Ac-VQIINK-NH2 (105 microliters (SEQ ID NO: 220)) is added to the chilled water (final volume of 7.350 milliliters), this is added into a pooled reservoir, and using a 96-channel robotic pipettor, 70 microliters diluted Ac-VQIINK-NH2 (SEQ ID NO: 220) is added to the assay plate to achieve a final concentration of 50 micromolar in a 200 microliter final assay volume (per well). Data is acquired using Magellan software. The calculation of IC50 is done by an automatic algorithm developed using the R statistical programing language. Briefly, the algorithm uses data exported in excel format from the plate reader to average the cumulative ThT fluorescence for each inhibitor concentration in the 6-point dose response. The IC50 is calculated as the midpoint of a sigmoid curve fitted to the correlation of normalized ThT fluorescence and inhibitor concentration.

`CC[C@H](C)[C@H](NC(=O)[C@@H](N)CCCCN)C(=O)N[C@@H](CCCNC(=N)N)C(=O)N[C@@H](CC(C)C)C(=O)N[C@@H](Cc1ccc(O)cc1)C(=O)N[C@@H](Cc1c[nH]c2ccccc12)C(=O)N[C@@H](Cc1c[nH]c2ccccc12)C(=O)O` [compound 194] (H-KIRLYWW-OH) and `CC[C@H](C)[C@H](NC(=O)[C@H](CCCNC(=N)N)NC(=O)[C@@H](N)Cc1c[nH]c2ccccc12)C(=O)N[C@@H](Cc1c[nH]c2ccccc12)C(=O)N[C@@H](CC(C)C)C(=O)N[C@@H](CCCNC(=N)N)C(=O)N[C@@H](Cc1ccc(O)cc1)C(=O)N[C@@H](Cc1c[nH]c2ccccc12)C(=O)O` [compound 17] (H-WRIWLRYW-OH) are within 1.5-fold of each other in IC50: 2860 nM for the first, 2320 nM for the second.

`CC[C@H](C)[C@H](NC(=O)[C@H](C)NC(=O)[C@@H](N)Cc1c[nH]c2ccccc12)C(=O)N[C@@H](CCCNC(=N)N)C(=O)N[C@H](C(=O)N[C@@H](CCCNC(=N)N)C(=O)N[C@@H](Cc1c[nH]c2ccccc12)C(=O)O)[C@@H](C)CC` [compound 124] (H-WAIRIRW-OH) and `CC[C@H](C)[C@H](NC(=O)[C@H](CCC(N)=O)NC(=O)[C@@H](NC(=O)[C@H](CCCNC(=N)N)NC(=O)[C@@H](N)Cc1c[nH]c2ccccc12)[C@@H](C)CC)C(=O)N[C@@H](CCCNC(=N)N)C(=O)N[C@@H](Cc1c[nH]c2ccccc12)C(=O)O` [compound 69] (H-WRIQIRW-OH) are within 1.5-fold of each other in IC50: 1940 nM for the first, 2170 nM for the second.

Compared with `CC[C@H](C)[C@H](N)C(=O)N[C@@H](Cc1c[nH]c2ccccc12)C(=O)N[C@H](C(=O)N[C@@H](CCCNC(=N)N)C(=O)N[C@@H](CC(C)C)C(=O)N[C@@H](Cc1c[nH]c2ccccc12)C(=O)O)[C@@H](C)CC` [compound 50] (H-IWIRLW-OH), `CC[C@H](C)[C@H](NC(=O)[C@H](Cc1ccccc1)NC(=O)[C@@H](NC(=O)[C@H](CCCNC(=N)N)NC(=O)[C@@H](N)Cc1c[nH]c2ccccc12)[C@@H](C)CC)C(=O)N[C@@H](CCCNC(=N)N)C(=O)N[C@@H](Cc1c[nH]c2ccccc12)C(=O)O` [compound 136] (H-WRIFIRW-OH) is 4.3-fold higher in IC50: 2120 nM for the first, 9130 nM for the second. The first is the more potent here.

For `CC[C@H](C)[C@H](NC(=O)[C@H](Cc1c[nH]c2ccccc12)NC(=O)[C@@H](NC(=O)[C@H](CCCNC(=N)N)NC(=O)[C@@H](N)CC(C)C)[C@@H](C)CC)C(=O)N[C@@H](CCCNC(=N)N)C(=O)N[C@@H](Cc1ccc(O)cc1)C(=O)N[C@@H](CC(C)C)C(=O)O` [compound 155] (H-LRIWIRYL-OH), the IC50 was 1740 nM.

Each molecule was assayed against His-Tau40P301L Tau (UniProt P10636-8 1-441) (assay: cell-based or functional assay).
Sequence of His-Tau40P301L Tau (P10636 other isoform, or with tags, fused parts or gaps limits assumed): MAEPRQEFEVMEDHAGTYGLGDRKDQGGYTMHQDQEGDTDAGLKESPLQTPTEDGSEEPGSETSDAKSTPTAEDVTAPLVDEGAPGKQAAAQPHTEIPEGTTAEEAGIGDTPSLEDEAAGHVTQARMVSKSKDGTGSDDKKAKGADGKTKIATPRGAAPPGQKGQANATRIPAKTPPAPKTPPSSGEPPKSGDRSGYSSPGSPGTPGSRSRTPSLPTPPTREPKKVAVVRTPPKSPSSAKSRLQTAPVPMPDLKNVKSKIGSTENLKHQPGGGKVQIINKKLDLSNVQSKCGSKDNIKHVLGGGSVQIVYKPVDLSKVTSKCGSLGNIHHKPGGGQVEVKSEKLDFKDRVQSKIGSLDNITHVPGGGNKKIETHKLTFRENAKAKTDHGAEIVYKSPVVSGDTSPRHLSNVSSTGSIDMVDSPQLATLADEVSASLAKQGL

B1 and B2 are within 1.5-fold of each other in “IC50 (µM), Tau40 assay (ThT)” value: 1.82 µM for the first, 1.87 µM for the second.

First: B4
Second: B5
The “IC50 (µM), Tau40 assay (ThT)” value of the first is 1.6-fold higher: 1.24 µM for the first, 0.76 µM for the second.

First: B6
Second: B7
The “IC50 (µM), Tau40 assay (ThT)” value of the first is 1.7-fold higher: 2.01 µM for the first, 1.21 µM for the second.

Going from B8 to B10, the “IC50 (µM), Tau40 assay (ThT)” value rises from 0.57 µM to 2.07 µM (3.6-fold).

B11 and B12 are within 1.5-fold of each other in “IC50 (µM), Tau40 assay (ThT)” value: 1.96 µM for the first, 1.61 µM for the second.

B13 and B14 are within 1.5-fold of each other in “IC50 (µM), Tau40 assay (ThT)” value: 2.05 µM for the first, 1.92 µM for the second.

B17 and B19 are within 1.5-fold of each other in “IC50 (µM), Tau40 assay (ThT)” value: 1.52 µM for the first, 1.68 µM for the second.

B20 and B21 are within 1.5-fold of each other in “IC50 (µM), Tau40 assay (ThT)” value: 2.06 µM for the first, 1.96 µM for the second.

B22 and B25 are within 1.5-fold of each other in “IC50 (µM), Tau40 assay (ThT)” value: 1.99 µM for the first, 1.74 µM for the second.

B26 and B27 are within 1.5-fold of each other in “IC50 (µM), Tau40 assay (ThT)” value: 2.09 µM for the first, 2.14 µM for the second.

B28 and B29 are within 1.5-fold of each other in “IC50 (µM), Tau40 assay (ThT)” value: 1.15 µM for the first, 1.47 µM for the second.

For B30, the “IC50 (µM), Tau40 assay (ThT)” value was 1.82 µM.

In the case of B3, the “IC50 (µM), Tau40 assay (ThT)” value is reported as 1.32 µM and 1.53 µM.
For B9, the “IC50 (µM), Tau40 assay (ThT)” value was 1.13 µM and 1.21 µM.
B15 was tested, and the “IC50 (µM), Tau40 assay (ThT)” value was 1.3 µM and 1.32 µM.
With B16 the “IC50 (µM), Tau40 assay (ThT)” value was 1.22 µM and 1.33 µM and 1.37 µM.
For B18, the “IC50 (µM), Tau40 assay (ThT)” value was 1.7 µM and 2.34 µM.
In the case of B23, the “IC50 (µM), Tau40 assay (ThT)” value is reported as 1.86 µM and 2.08 µM.
With B24 the “IC50 (µM), Tau40 assay (ThT)” value was 1.2 µM and 1.31 µM.

Target: T2, Ac-VQIINK-NH2
T2 peptide: Ac-VQIINK-NH2
Assay: cell-based or functional assay

B1 and B2 are within 1.5-fold of each other in “IC50 (µM), VQIINK Inhibition (ThT)” value: 3.2 µM for the first, 4.3 µM for the second.

B3 and B4 are within 1.5-fold of each other in “IC50 (µM), VQIINK Inhibition (ThT)” value: 3.24 µM for the first, 3.34 µM for the second.

First: B5
Second: B6
The “IC50 (µM), VQIINK Inhibition (ThT)” value of the first is 2.7-fold lower: 3.44 µM for the first, 9.13 µM for the second.

First: B7
Second: B8
The “IC50 (µM), VQIINK Inhibition (ThT)” value of the first is 1.9-fold lower: 2.04 µM for the first, 3.84 µM for the second.

B9 and B10 are within 1.5-fold of each other in “IC50 (µM), VQIINK Inhibition (ThT)” value: 2.98 µM for the first, 4.31 µM for the second.

B11 and B12 are within 1.5-fold of each other in “IC50 (µM), VQIINK Inhibition (ThT)” value: 5.61 µM for the first, 5.74 µM for the second.

B13 and B14 are within 1.5-fold of each other in “IC50 (µM), VQIINK Inhibition (ThT)” value: 2.32 µM for the first, 2.45 µM for the second.

Compared with B15, B17 is 2.6-fold higher in “IC50 (µM), VQIINK Inhibition (ThT)” value: 2.82 µM for the first, 7.38 µM for the second.

First: B18
Second: B19
The “IC50 (µM), VQIINK Inhibition (ThT)” value of the first is 1.8-fold lower: 2.17 µM for the first, 3.85 µM for the second.

B20 and B21 are within 1.5-fold of each other in “IC50 (µM), VQIINK Inhibition (ThT)” value: 2.31 µM for the first, 2.87 µM for the second.

B22 and B23 are within 1.5-fold of each other in “IC50 (µM), VQIINK Inhibition (ThT)” value: 2.64 µM for the first, 2.22 µM for the second.

First: B24
Second: B25
The “IC50 (µM), VQIINK Inhibition (ThT)” value of the first is 1.7-fold higher: 4.88 µM for the first, 2.95 µM for the second.

First: B26
Second: B27
The “IC50 (µM), VQIINK Inhibition (ThT)” value of the first is 2.5-fold higher: 4.93 µM for the first, 2.01 µM for the second.

Going from B28 to B29, the “IC50 (µM), VQIINK Inhibition (ThT)” value rises from 2.35 µM to 4.04 µM (1.7-fold).

In the case of B30, the “IC50 (µM), VQIINK Inhibition (ThT)” value is reported as 17.8 µM.

In the case of B16, the “IC50 (µM), VQIINK Inhibition (ThT)” value is reported as 2.44 µM and 3.77 µM.
